Publication PMC4282830

Biological target: guanidine hydrochloride denatured vitamin D binding protein (human) (UniProt P02774)
Experiment: covalent complex formation, reducing SDS-PAGE and immunoblot

UniProt P02774, sequence (P02774 17-474): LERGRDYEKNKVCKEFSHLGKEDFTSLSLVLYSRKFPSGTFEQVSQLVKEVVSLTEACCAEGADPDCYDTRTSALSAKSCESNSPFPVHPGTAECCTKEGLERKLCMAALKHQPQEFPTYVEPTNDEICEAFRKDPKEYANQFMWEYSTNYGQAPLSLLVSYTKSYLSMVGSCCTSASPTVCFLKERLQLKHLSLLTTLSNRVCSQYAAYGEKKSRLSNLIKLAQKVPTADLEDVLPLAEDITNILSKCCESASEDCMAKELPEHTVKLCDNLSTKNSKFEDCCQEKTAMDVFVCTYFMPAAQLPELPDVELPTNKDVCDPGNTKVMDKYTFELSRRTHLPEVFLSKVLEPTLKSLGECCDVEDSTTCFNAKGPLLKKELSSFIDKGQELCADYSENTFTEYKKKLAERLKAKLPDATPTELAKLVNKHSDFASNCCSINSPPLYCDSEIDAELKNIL

Q: For complement C3b (natural protein), which fold increase in intensity of the C3b:DBP band, denatured versus native DBP is on record?
A: 5 fold
